Experimental data reported in US20190309300A1 (TECHNION RESEARCH AND DEVELOPMENT FOUNDATION, published 2019).
One block for each binder: values may come before it.

Biological target: T1, flag tagged full length HDAC4 (human, UniProt P56524 1-1084)
T1 construct: Full length, expressed in transfected cells and immunoprecipitated from lysate; also called Flag-HDAC4; pcDNA HDAC4-flag; not shown: Flag tag
Assay: co-immunoprecipitation, IP anti-Flag, blot anti-HA (FIG. 7B)
Description: Cultured cells were washed with ice-cold phosphate-buffered saline (PBS) buffer and lysed in buffer containing 50 mM Tris, pH 7.5, 150 mM NaCl, 1 mM EDTA, and 1% NP-40. 400 μg of protein was immunoprecipitated with anti-Flag (Sigma-Aldrich), or IgG antibodies (negative control) and protein A/G agarose beads (Santa Cruz Biotechnology, Inc.) as described previously [Kehat I, et al., Modulation of chromatin position and gene expression by HDAC4 interaction with nucleoporins. J Cell Biol 2011, 193, 21-29]. Beads were washed three times with buffer and suspended in 30 μl of Laemmli buffer. Proteins were separated on an SDS gel, blotted, and detected with primary antibody recognizing HA (Santa Cruz Biotechnology, Inc. sc-805) or flag (Sigma-Aldrich).

T1 sequence (P56524 whole entry): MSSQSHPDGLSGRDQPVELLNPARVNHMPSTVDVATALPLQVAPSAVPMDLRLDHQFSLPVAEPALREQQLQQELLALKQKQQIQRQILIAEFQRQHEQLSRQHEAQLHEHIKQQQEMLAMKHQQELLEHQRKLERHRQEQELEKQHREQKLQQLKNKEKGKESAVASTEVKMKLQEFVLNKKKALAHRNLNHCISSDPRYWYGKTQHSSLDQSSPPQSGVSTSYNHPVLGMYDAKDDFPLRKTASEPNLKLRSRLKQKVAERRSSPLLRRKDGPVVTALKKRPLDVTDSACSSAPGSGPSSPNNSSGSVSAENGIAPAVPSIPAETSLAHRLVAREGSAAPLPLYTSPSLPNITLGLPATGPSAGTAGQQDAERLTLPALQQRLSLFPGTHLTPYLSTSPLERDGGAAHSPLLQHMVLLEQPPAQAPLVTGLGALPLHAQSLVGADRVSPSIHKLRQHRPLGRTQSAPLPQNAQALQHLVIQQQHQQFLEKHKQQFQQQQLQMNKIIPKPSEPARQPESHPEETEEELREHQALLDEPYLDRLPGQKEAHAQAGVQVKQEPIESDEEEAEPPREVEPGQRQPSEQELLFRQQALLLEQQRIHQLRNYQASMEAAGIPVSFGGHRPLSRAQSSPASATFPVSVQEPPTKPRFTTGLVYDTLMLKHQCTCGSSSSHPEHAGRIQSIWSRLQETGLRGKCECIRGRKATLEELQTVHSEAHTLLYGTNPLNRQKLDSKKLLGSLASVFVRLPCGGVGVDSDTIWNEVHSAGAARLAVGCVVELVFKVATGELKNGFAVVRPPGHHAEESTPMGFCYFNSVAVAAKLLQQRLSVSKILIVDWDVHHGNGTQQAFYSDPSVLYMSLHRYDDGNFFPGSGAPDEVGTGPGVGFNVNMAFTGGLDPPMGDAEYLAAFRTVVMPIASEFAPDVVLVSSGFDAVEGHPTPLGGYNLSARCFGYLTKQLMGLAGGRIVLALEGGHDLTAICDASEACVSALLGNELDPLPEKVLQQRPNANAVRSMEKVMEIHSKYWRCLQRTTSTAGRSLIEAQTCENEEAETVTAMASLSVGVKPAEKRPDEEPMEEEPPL

binding result: no binding
B1: 3HA tagged ENIGMA fragment containing the PDZ domain and linker (other, mouse, UniProt Q3TJD7 1-279, looked up)
chain: MDSFKVVLEGPAPWGFRLQGGKDFNVPLSISRLTPGGKAAQAGVAVGDWVLNIDGENAGSLTHIEAQNKIRACGERLSLGLSRAQPVQSKPQKALTPPADPPRYTFAPSASLNKTARPFGAPPPTDSTLRQNGQLLRQPVPDASKQRLMEDTEDWRPRPGTGQSRSFRILAHLTGTEFMQDPDEEFMKKSSQVPRTEAPAPASTIPQESWPGPTTPSPTSRPPWAVDPAFAERYAPDKTSTVLTRHSQPATPTPLQNRTSIVQAAAGGGTGGGSNNGKT
notes: domain: PDZ domain and linker; not shown: 3HA tag

binding result: no binding
B2: 3HA tagged ENIGMA fragment containing the linker and first LIM domain (other, mouse, UniProt Q3TJD7 86-338, looked up)
chain: PVQSKPQKALTPPADPPRYTFAPSASLNKTARPFGAPPPTDSTLRQNGQLLRQPVPDASKQRLMEDTEDWRPRPGTGQSRSFRILAHLTGTEFMQDPDEEFMKKSSQVPRTEAPAPASTIPQESWPGPTTPSPTSRPPWAVDPAFAERYAPDKTSTVLTRHSQPATPTPLQNRTSIVQAAAGGGTGGGSNNGKTPVCHQCHKIIRGRYLVALGHAYHPEEFVCSQCGKVLEEGGFFEEKGAIFCPSCYDVRYA
notes: domain: linker and first LIM domain; not shown: 3HA tag
